Assay [1] concerns the target T1, PTHR-1 (species and cells not stated for the assay) (Homo sapiens (Human), UniProt Q03431 27-593).
T1 sequence: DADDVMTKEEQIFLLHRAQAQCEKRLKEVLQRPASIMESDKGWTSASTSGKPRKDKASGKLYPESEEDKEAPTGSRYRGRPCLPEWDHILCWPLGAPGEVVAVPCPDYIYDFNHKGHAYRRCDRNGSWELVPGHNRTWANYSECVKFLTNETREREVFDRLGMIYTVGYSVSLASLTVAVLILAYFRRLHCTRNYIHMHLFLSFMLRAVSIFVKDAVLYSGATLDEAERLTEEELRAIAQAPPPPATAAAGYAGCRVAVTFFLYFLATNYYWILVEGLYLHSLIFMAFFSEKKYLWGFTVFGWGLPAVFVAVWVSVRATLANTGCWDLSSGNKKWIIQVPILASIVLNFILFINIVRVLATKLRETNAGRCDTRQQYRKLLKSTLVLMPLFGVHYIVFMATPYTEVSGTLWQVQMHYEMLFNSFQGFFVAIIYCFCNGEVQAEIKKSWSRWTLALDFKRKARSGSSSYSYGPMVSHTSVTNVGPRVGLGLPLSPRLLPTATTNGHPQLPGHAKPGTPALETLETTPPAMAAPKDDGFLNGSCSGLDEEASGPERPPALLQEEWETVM
The assay is described as follows: cell-based or functional assay.

For assay [2], the target named is T2, human parathyroid hormone receptor 1, wild-type (hPTHR-1) (human, UniProt Q03431 27-593).
T2 construct: whole, on cells; also called human PTHR-1; PTHR-1-WT
T2 sequence (looked up): T1 sequence
The assay is described as follows: R0 binding, GP2.3 membranes (human PTHR-1); tracer not stated here.

The target of assay [3] is T3, rat parathyroid hormone receptor 1, wild-type (rPTHR-1) (rat, UniProt P25961 27-591).
T3 sequence (looked up): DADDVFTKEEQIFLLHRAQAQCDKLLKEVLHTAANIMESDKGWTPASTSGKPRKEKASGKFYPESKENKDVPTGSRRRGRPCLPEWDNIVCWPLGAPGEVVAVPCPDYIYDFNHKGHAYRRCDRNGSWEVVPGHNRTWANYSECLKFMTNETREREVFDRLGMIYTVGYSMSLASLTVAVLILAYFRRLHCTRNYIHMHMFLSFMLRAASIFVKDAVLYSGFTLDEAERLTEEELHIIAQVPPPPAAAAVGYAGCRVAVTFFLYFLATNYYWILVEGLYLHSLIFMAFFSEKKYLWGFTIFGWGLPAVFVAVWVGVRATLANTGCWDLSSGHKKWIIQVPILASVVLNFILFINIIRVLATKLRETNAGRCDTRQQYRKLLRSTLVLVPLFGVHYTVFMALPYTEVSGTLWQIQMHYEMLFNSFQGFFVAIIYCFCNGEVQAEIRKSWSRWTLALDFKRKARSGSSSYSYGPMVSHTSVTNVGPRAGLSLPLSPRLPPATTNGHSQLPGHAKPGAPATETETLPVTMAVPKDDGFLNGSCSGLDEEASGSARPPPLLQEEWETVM
The assay is described as follows: cell-based or functional assay.

The target of assay [4] is T3, rat parathyroid hormone receptor 1, …. The assay is described as follows: cell-based or functional assay. Also on record: AUC-on / AUC-washout: unit not given beside the values.
The target is the same in assay [5]. The assay is described as follows: RG state; 125I-M-PTH(1-15) displacement; COS-7 membranes, rPTHR-1 + Gαs mutant. From the text: (§1) Binding inhibition constants are expressed as the -log (IC50) and corresponding nanoMolar (nM) values. Values are means (±SEM) of the number of experiments shown (n), each performed in duplicate.
The target of assay [6] is T2, human parathyroid hormone receptor 1, …. The assay is described as follows: cell-based or functional assay.
For assay [7] the target is unchanged. The assay is described as follows: RG state; 125I-M-PTH(1-15) displacement; COS-7 membranes, hPTHR-1 + Gαs mutant. From the text:
(§2) ^aValues are means of n ≧4 experiments, each performed in duplicate.

For assay [8], the target named is T3, rat parathyroid hormone receptor 1, …. The assay is described as follows: R0 state; 125I-PTH(1-34) displacement; COS-7 membranes, rPTHR-1, GTPγS.
Excerpt: as §1

Assay [9] has as its target T2, human parathyroid hormone receptor 1, …. The assay is described as follows: cell-based or functional assay. The source holds these as a separate data set.
Assay [10] shares this target. The assay is described as follows: R0 state; 125I-PTH(1-34) displacement; COS-7 membranes, hPTHR-1, GTPγS. An excerpt: (§3) FIGS. 6A, 6B, 6C, 6D, 6E, and 6F constitute a series of graphs depicting binding of various analogs to the R⁰ and RG forms of human PTHR-1 (hPTHR-1). […] Data are means (±SEM) of n≧4 experiments, each performed in duplicate.
Assay [11] shares this target. The assay is described as follows: RG state; 125I-M-PTH(1-15) displacement; COS-7 membranes, hPTHR-1 + Gαs mutant.
Excerpt: as §3
This is another data set of the same source.

In assay [12] the target is T3, rat parathyroid hormone receptor 1, …. The assay is described as follows: RG state; 125I-M-PTH(1-15) displacement; COS-7 membranes, rPTHR-1 + Gαs mutant.
Excerpt: as §1
The source holds these as a separate data set.

Assay [13] concerns the target T2, human parathyroid hormone receptor 1, …. The assay is described as follows: R0 state; 125I-PTH(1-34) displacement; COS-7 membranes, hPTHR-1, GTPγS.
Excerpt: as §2
This is another data set of the same source.

Assay [14] deals with T3, rat parathyroid hormone receptor 1, …. The assay is described as follows: cell-based or functional assay. The source holds these as a separate data set.
Assay [15] has the same target. The assay is described as follows: R0 state; 125I-PTH(1-34) displacement; COS-7 membranes, rPTHR-1, GTPγS.
Excerpt: as §1
This is another data set of the same source.

The target is the same in assay [16]. The assay is described as follows: ratio of R0 IC50 to RG IC50, rPTHR-1.
Excerpt: as §1

The target in assay [17] is T2, human parathyroid hormone receptor 1, …. The assay is described as follows: ratio of R0 IC50 to RG IC50, hPTHR-1.
Assay [18] has as its target T1, PTHR-1 (species and cells not stated …). The assay is described as follows: cell-based or functional assay. The source holds these as a separate data set.
Assay [19] has the same target. The assay is described as follows: cell-based or functional assay. The source holds these as a separate data set.

Read-outs that look alike come from different tables or passages of the source. Non-standard residues stand in square brackets, D forms with d. Primed or numbered codes have the meaning given here. No end group written: not given here. APC = aminopyrrolidine carboxylic acid (2-aminopyrrolidine-4-carboxylic acid); ACPC″ = 2-aminocyclopentane carboxylic acid (X); β3hW = N[C@H](CC(=O)O)Cc1c[nH]c2ccccc12; β3hE = N[C@@H](CCC(=O)O)CC(=O)O; β3hF = N[C@H](CC(=O)O)Cc1ccccc1; β3hK = NCCCC[C@H](N)CC(=O)O; β3hM = CSCC[C@H](N)CC(=O)O; β3hD = NC(CC(=O)O)CC(=O)O; β3hS = N[C@@H](CO)CC(=O)O; Aib = CC(C)(N)C(=O)O

B1: FcycD6_β3Ser(1), Aib(3), ACPC (7) (peptide)
peptide: [β3hS]V[Aib]EIQ[ACPC″]MHNLGK[ACPC″]LNS[ACPC″]ERV[APC]WLR[APC]KLQ[ACPC″]VHN[ACPC″]-NH2
Turning to B1, the “cAMP EC50” value in [1] stood at 0.21 nM. In assay [2], the IC50 (as a rule, the concentration at which inhibition is half-maximal) was 1.54 nM.

B2: FcycD6_β3Ser(1), ACPC(5,7) (peptide)
peptide: [β3hS]VSE[ACPC″]Q[ACPC″]MHNLGK[ACPC″]LNS[ACPC″]ERV[APC]WLR[APC]KLQ[ACPC″]VHN[ACPC″]-NH2
Take B2: in assay [1], the “cAMP EC50” value is 0.79 nM. Also, the IC50 in [2] amounted to 89.4 nM.

B3: B5 (peptide)
peptide: SVSEIQLMHNLGKHLNSMERVEWLRKKLQDVQNF-NH2
modifications: not fully specified (residues 20, 24, 28, 32); printed as SVSEIQLMHNLGKHLNSMERVEWLRKKLQDVQNF-NH2; also: five β3 residues, positions not given here in text
notes: also called α/β-peptide B5
For the molecule B3, the “cAMP EC50” value came to 1.45 nM in assay [3], 0.11 nM in assay [6], 0.11 nM in [9] and 1.45 nM in [14]. In addition, the “cAMP Max” value was 51 cps × 10-3 in assay [3], 212 cps × 10^-3 in assay [6], 0.98 relative to PTH(1-34) in [9] and 0.78 relative to PTH(1-34) in assay [14]. Also, the “cAMP pEC50” value in [3] turned out to be 8.84; in assay [6], 9.97. Further, the AUC-on in [4] amounted to 130000. Also, the AUC-washout in [4] turned out to be 84000. The 50% inhibitory concentration (IC50) in [5] is 4.2 nM; in assay [7], 0.086 nM; in assay [8], 65 nM; in [10], 19 nM; in [11] it was 0.086 nM; in assay [12] it was 4.2 nM. Further, the IC50 in [13] worked out at 19 nM; in assay [15] it was 65 nM. The “-log (IC50)” value came to 7.72 in [10], 10.1 in assay [11], 8.37 in assay [12] and 7.18 in assay [15].

B4: D7 (peptide)
peptide: SVSEIQLMHNLGKWLNSMERVEWLRKKLQDVHNF-NH2
modifications: not fully specified (residue 14); printed as SVSEIQLMHNLGKWLNSMERVEWLRKKLQDVHNF-NH2; also: seven β3 residues, positions not given here in text
notes: also called α/β-peptide D7
As to B4, the “Fold PTH(1-34)” value in assay [3] turned out to be 3.89 fold; in assay [6] it was 2.26 fold. The “cAMP EC50” value was 1.62 nM in [3], 0.39 nM in [6] and 0.39 nM in [9]. Further, the entries for the “cAMP Max” value in assay [3], in assay [6] and in assay [9] were 40 cps × 10-3, 184 cps × 10^-3 and 0.85 relative to PTH(1-34), respectively. Besides, the “cAMP pEC50” value was 8.79 in assay [3] and 9.41 in assay [6]. Moreover, the “R^0/RG” value in assay [16] came out at 7 ratio; in [17], 15 ratio. For the same molecule, the IC50 amounted to 0.24 nM in [7]; 3.5 nM in assay [10]; 0.24 nM in assay [11]; 2 nM in assay [12]; 3.5 nM in [13]; 14.8 nM in assay [15]. For the same molecule, the “-log (IC50)” value in assay [10] came to 8.45; in [11], 9.63; in assay [12], 8.69; in assay [15], 7.83.

B5: D6 (peptide)
peptide: SVSEIQLMHNLGK[β3hW]LNS[β3hM]ERV[β3hE]WLR[β3hK]KLQ[β3hD]VHN[β3hF]-NH2
notes: also called α/β-peptide D6
In the case of B5, in [18], the “cAMP response PTH1R/PTH2R” value was 33 ratio. Further, the “Fold PTH(1-34)” value in [3] stood at 0.79 fold; in assay [6] it was 0.76 fold. Further, the “cAMP EC50” value in assay [3] amounted to 0.33 nM; in [6], 0.13 nM; in assay [9], 0.13 nM; in [14], 0.33 nM; in [19], 0.17 nM. In addition, the “cAMP Max” value is 50 cps × 10-3 in [3], 189 cps × 10^-3 in assay [6], 0.87 relative to PTH(1-34) in [9] and 0.76 relative to PTH(1-34) in assay [14]. Moreover, the “cAMP pEC50” value in assay [3] is 9.48; in assay [6] it was 9.89. Besides, the “R^0/RG” value in [16] is 8 ratio; in assay [17], 31 ratio. Besides, the “AUC Ratio” value in assay [4] was 1.5. The AUC-on in assay [4] came out at 100000. This molecule registered an AUC-washout in assay [4] of 130000. For the same molecule, the IC50 in assay [5] turned out to be 0.81 nM; in [7], 0.065 nM; in assay [8], 6.1 nM; in [10], 2 nM; in assay [11], 0.065 nM; in assay [12], 0.81 nM. Also, the IC50 in assay [13] came out at 2 nM; in [15], 6.1 nM. In addition, the “-log (IC50)” value was 8.69 in assay [10], 10.2 in assay [11], 9.09 in assay [12] and 8.22 in assay [15]. Further, in assay [19], the “Fold PTH” value was determined as 2.1 fold.
